What was measured:
[1] = molecular target: Asterias forbesii ferritin (AfFer) (Asterias forbesii); assay: crystal structure; hanging drop vapour diffusion, 20 °C, 12.0 µM ferritin in 5.0 mM Tris-HCl; crystals with body-centered tetragonal (BCT) lattice; subunits in the 24-mer cage and cage to cage contacts
[2] = molecular target: Asterias forbesii ferritin (AfFer) (Asterias forbesii); assay: native gel or EMSA; native-PAGE and SDS-PAGE of purified AfFer; subunits to the 24-mer cage

Substance “Asterias forbesii ferritin (AfFer) (natural protein)” has a stoichiometry N [1] of 24 and a stoichiometry N [2] of 24.

Source: publication PMC10647799
